Results on three molecules are retold here after article PMC9529537 (The Innovation, 2022).

This assay has as its target yellow fever virus soluble envelope (E) protein (Yellow fever virus, strain CNYF01/2016 …). The experiment in a line: crystal structure.

B1: YD6 Fab (Fab, V domains shown)
VH: EVQLVESGGGLVKPGGSLRLSCAASGFIFSDYYMMWIRQAPGKGLEWISYISSSGSQIYYTESVKGRFTISRDNGKNLLYLQMNSLRGEDTALYYCATETGWRIDTWGQGTLVTVSS
VL: QAVLTQPASVSGSPGQSITISCTGTGSNIETYNLVSWYQRHPGKAPKLILYEVSERPSGVSNRFSGSKSGNTASLTISGLQAEDEADYFCCSYADTNIFWVFGGGTHLTVL
For B1, the binding result is recorded as “binds”.

B2: YD6 scFv (scFv, V domains shown)
VH: B1 VH
VL: B1 VL
Turning to B2, the binding result is on record as “binds”.

B3: YD73 Fab (Fab, V domains shown)
VH: QVQLVQSGAEVKKPGASVKVSCKASGYTFIAYGISWVRQAPGQGLEWMGWISAHNGNTNYAQKFQGRVTVTTDTTTRTAFMELRNLRSDDTAVYYCARAPWEYNYRSSGYYDSPYWGQGTLVTVSS
VL: EIVLTQSPGTLSLSPGERATLSCRASQSVVSTYLAWYQQKPGQAPRLLIYDTSTRATGIPDRFSGSGSGTDFTLTISRLEPEDFAVYYCQHYDSSPPWTFGQGTKVEIK
With B3, the binding result is “binds”.
